Source: patent US20030199071A1 (published 2003)

Biological target: FimH Q133A (E. coli, UniProt P08191 22-300)
Experiment: co-expression with FimC in E. coli; data not shown

B1: FimC (wild type periplasmic chaperone of E. coli type 1 pili) (other)
chain: GVALGATRVIYPAGQKQVQLAVTNNDENSTYLIQSWVENADGVKDGRFIVTPPLFAMKGKKENTLRILDATNNQLPQDRESLFWMNVKAIPSMDKSKLTENTLQLAIISRIKLYYRPAKLALPPDQAAEKLRFRRSANSLTLINPTPYYLTVTELNAGTRVLENALVPPMGESTVKLPSDAGSNITYRTINDYGALTPKMTGVME
notes: also called FimC alone; wild type FimC
  binding result: binds
